In US20220204643A1 (published 2022):
Blank lines part the entries; values can stand above or below the binder they belong to.

Key:
Test in all cases: protein array
[1] = biological target: T1, zinc finger with KRAB and SCAN domains 4, transcript variant X1 (human, UniProt Q969J2 1-545)
T1 construct: on protein array; also called ZKSCAN4
T1 sequence: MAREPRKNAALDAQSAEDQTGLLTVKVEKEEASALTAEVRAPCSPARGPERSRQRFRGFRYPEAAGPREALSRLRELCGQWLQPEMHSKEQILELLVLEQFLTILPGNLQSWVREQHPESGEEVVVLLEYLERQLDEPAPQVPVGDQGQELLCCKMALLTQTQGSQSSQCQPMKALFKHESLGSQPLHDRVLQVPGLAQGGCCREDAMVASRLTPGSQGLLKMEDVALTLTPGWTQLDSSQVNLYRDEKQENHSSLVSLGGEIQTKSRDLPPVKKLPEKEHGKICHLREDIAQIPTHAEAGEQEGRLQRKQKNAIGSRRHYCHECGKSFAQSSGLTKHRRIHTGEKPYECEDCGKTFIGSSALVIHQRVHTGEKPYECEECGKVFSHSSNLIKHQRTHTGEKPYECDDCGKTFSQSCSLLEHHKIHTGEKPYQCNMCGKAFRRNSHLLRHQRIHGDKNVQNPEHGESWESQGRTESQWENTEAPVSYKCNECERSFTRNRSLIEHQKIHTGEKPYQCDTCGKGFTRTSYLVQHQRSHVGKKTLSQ

[2] = biological target: T2, NFKB inhibitor beta, transcript variant 1 (human, UniProt Q15653 1-356)
T2 construct: on protein array; also called NFKBIB
T2 sequence: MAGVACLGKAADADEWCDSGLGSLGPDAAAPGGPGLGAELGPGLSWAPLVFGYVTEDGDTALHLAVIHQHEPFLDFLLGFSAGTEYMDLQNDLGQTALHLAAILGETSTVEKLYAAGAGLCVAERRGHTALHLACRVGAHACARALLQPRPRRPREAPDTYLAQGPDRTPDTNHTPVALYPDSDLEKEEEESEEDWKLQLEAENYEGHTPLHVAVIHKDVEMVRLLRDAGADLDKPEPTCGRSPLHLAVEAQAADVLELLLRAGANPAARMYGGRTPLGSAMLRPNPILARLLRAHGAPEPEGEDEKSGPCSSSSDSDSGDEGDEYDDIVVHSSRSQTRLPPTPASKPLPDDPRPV

[3] = biological target: T3, cyclin dependent kinase 2 associated protein 2, transcript variant 1 (human, UniProt O75956 1-126)
T3 construct: on protein array; also called CDK2AP2
T3 sequence: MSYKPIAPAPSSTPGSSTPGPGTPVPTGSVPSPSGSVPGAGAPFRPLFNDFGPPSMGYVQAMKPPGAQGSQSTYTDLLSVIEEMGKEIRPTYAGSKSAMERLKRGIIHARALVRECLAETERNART

chymotrypsinogen B2 = biological target: T4, chymotrypsinogen B2 (human, UniProt Q6GPI1 19-263)
T4 construct: on protein array; also called CTRB2

[4] = biological target: T5, calcium and integrin binding 1, transcript variant b (human, UniProt Q99828 2-191)
T5 construct: on protein array; also called CIB1
T5 sequence: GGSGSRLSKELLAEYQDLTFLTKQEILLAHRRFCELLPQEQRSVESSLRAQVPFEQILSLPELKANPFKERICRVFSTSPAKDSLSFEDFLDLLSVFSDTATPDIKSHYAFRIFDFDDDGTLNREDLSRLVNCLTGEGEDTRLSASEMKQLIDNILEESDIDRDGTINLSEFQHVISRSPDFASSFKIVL

[5] = biological target: T6, transforming growth factor beta induced (human, UniProt Q15582 24-683)
T6 construct: on protein array; also called TGFBI
T6 sequence: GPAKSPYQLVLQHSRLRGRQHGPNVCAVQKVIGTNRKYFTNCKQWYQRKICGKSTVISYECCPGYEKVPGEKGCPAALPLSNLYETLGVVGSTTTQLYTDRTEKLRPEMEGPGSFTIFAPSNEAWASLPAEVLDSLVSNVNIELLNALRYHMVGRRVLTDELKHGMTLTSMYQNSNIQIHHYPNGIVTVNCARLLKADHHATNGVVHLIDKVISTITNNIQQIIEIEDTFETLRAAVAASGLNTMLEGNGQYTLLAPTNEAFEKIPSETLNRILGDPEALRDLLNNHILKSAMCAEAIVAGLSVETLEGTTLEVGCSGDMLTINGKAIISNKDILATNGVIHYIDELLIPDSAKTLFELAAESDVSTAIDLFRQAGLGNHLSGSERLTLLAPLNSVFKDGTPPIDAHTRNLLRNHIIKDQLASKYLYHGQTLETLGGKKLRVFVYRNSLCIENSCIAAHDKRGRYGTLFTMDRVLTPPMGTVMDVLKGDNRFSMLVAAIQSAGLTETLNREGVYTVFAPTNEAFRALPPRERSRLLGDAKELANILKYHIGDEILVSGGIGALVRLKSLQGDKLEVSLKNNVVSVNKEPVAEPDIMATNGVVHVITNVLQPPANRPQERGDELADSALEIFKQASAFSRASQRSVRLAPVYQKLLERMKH

[6] = biological target: T7, Transforming growth factor beta 3 (human, UniProt P10600 24-412)
T7 construct: on protein array; also called TGFB3
T7 sequence: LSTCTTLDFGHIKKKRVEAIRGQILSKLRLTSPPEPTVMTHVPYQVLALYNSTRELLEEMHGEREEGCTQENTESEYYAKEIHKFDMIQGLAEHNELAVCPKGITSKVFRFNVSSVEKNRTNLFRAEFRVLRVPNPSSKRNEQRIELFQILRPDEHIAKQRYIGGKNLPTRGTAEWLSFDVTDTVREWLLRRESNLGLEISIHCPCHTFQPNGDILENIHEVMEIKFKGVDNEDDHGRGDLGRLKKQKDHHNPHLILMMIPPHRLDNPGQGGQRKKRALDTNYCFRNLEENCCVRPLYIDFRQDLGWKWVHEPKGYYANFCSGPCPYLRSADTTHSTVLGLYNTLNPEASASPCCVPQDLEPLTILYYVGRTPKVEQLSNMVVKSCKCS

[7] = biological target: T8, zinc finger DHHC-type containing 1, transcript variant 1 (human, UniProt Q8WTX9 1-485)
T8 construct: on protein array; also called ZDHHC1
T8 sequence: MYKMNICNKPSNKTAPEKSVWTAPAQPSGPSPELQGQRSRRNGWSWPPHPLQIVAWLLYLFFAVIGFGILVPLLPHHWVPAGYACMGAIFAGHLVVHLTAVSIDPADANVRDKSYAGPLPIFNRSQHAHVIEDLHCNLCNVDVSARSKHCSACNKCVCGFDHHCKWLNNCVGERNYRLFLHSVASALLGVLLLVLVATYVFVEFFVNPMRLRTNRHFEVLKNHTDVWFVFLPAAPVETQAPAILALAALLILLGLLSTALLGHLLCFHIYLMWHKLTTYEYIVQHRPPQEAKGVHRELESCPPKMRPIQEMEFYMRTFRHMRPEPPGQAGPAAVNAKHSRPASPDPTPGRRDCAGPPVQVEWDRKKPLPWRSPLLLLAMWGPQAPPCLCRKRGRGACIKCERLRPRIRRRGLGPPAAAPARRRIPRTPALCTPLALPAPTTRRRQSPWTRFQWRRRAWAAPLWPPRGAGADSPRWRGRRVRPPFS

[8] = biological target: T9, HAUS augmin like complex subunit 1, transcript variant 1 (human, UniProt Q96CS2 1-278)
T9 construct: on protein array; also called HAUS1
T9 sequence: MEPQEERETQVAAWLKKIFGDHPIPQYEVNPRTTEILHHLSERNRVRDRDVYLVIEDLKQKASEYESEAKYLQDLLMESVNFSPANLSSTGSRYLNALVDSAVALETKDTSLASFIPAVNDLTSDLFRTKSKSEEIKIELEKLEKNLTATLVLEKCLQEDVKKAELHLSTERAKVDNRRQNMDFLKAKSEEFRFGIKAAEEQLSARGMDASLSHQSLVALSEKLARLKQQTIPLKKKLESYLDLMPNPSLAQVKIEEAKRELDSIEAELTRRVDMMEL

[9] = biological target: T10, BCL2 apoptosis regulator, transcript variant alpha (human, UniProt P10415 1-239)
T10 construct: on protein array
T10 sequence (P10415 whole entry, change not shown): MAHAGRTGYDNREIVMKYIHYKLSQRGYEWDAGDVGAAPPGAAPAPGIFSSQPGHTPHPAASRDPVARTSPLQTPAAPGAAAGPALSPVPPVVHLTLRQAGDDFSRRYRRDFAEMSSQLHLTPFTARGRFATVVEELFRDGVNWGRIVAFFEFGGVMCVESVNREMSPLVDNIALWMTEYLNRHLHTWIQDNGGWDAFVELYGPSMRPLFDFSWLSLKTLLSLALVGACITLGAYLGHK

T4 sequence (Q6GPI1 19-263 limits assumed): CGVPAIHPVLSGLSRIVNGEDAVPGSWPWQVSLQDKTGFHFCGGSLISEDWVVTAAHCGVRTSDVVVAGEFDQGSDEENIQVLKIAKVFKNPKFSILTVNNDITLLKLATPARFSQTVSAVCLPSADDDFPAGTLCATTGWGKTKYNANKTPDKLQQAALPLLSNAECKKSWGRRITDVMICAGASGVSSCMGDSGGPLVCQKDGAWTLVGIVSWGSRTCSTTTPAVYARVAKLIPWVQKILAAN

B1: TBRE1009 (antibody, V domains shown)
VH: EVQLVESGGGLVKPGGSLRLSCVGSGFTFSNYSMNWVRQAPGRGLEWVSSISWGSSYINYADSVKGRFTISRDNAKNSLYLQMTSLTAEDTAVYYCACRRIYQGFDPWGQGTLVT
VL: DIQMTQSPSSLSASVGDRVTISCRASHNINTYLNWYQHKPGKAPKIVIYGASSLQSGVPSRFSGSGSGTDFSLTISSLQREDFATYFCQQSFNTVLTFGGGTRVDI
notes: VH/VL only
binding result [1]: binds

B2: TSTO1005 (antibody, V domains shown)
VH: EVQLVESGGGVVQPGGSLRLSCAASGFTFEDFGMHWVRQAPGKGLEWVAFTRFDGSEKYYVDSVKGRFTVSRDNSKNTLFLHMNSLRPEDTAVYYCAKTRSYSSADTTRPNAPGYWGQGTLVTVSS
VL: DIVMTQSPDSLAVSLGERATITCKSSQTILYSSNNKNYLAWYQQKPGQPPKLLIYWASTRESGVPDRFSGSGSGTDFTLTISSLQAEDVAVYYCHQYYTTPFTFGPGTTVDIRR
notes: VH/VL tied via antigen in summary, not by name in this stretch
binding result [2]: binds | binding result [3]: binds

B3: TSTO1004 (antibody, V domains shown)
VH: QVQLVQSGSELKKPGASVKVSCTSSGYVFTSFGVSWVRQVPGQGPEWMGWISPYTRQTKYAQSLQGRITLTADTSTNTTYMELRSLRSDDTAMYYCVREEFGVVRGPNPFDVWGQGTMVTVSS
VL: DIQMTQAPSTLSASVGDRVSITCRASQNIRDFLAWYQQKPGRAPDLLIYRASTLEKGVSARFSGSGSGTEFTLTITGLQPDDFATYYCQQYSDYSTFGGGTRVEIK
notes: as for B2
binding result (chymotrypsinogen B2): binds

B4: TSTO1001 (antibody, V domains shown)
VH: VVQLLESGGGLVHPGGSLRISCAASEFTFSAYAMTWVRQAPGKGLEWVSAISGSGGRTYYADSLKGRFTISRDNSKHTLYLLMNSLRVEDTAVYYCASRYRSPSGAFDIWGQGTLVTVSS
VL: EIVMTQSPATLSVSQGERATLSCRASQSVGSDLAWYQQKPGQAPRLLIYDASARATDIPARFSGSGSETEFTLTISSLQSEDFAVYYCQHYSDWRALTFGGGTKVEIKR
notes: as for B2
binding result [4]: binds

B5: TSTO1008 (antibody, V domains shown)
VH: AVQLVQSGAEVKKPGESLRISCKGSGYSFSTYWIIWVRQMPGKGLEWIGRFDPSDSYNVNSPSFQGHVTISADTSINTAYLQWSSLKASDSAMYYCARRSDKAVPGTFDQWGQGTLVTVSS
VL: RSVLTQPPSVSAAPGQKVIISCSGSSSNIGNNYVSWYQQFLGTAPKLLIYDTDKRPSGIPDRFSGSKSGTSATLGITGLQTGDEAHYYCATWDSSLRAGPVVFGGGTKLTVLG
notes: as for B2
binding result [5]: binds

The next lines start with the values.

binding result [6]: binds
B6: TSTO1003 (antibody, V domains shown)
VH: QVQLKQSGGGVVQPGRSLTLSCVASGLTFSDYGMHWVRQAPGKGLEWVAVIWHDGSKTNYADSVKGRIIISRDNSKSTVYLQMNRLRGEDTAVYYCATSHGGLVPGGENYWGQGTLVTVSS
VL: SDELTQPPSVSVSPGQTARITCSGDALAKEYAYWYQQKSGQAPVLVISKDTERPSGIPARFSGSSSGTTVTLTISGVQSDDEADYYCQSADSSLTYWLFGGGTKLTVLR
notes: as for B2

binding result [7]: binds
B7: TBLA1003 (antibody, V domains shown)
VH: EVQLVESGGGLIQPGRSLRLSCAASGFTFEDYAMHWVRQAPGKGLEWVSGISWNSGNIGYADSVKGRFTISRDNAKNSLYLQMHSLRPEDTALYYCAKDINFFGLGTGGGAMDVWGQGTTVTVSS
VL: DIQMTQSPSYVSASVGDRVTITCRASQGIDVWLAWYQQKPGKAPKLLIYTASSLQSGVPSRFSGSGGGTEFTLTISSLQPEDFATYYCQQSNSFPGTFGPGTKVDVKR
notes: VH/VL only

binding result [8]: binds
B8: TSTO1002 (antibody, V domains shown)
VH: EVQLVESGGGLVKPGGSLRLSCAASGFTFSNAWMNWVRQTPGKGLEWVGRIKTKTDGGTTDYAEPVKGRFTISRDDSKNTLYLQMNSLKTEDTAVYYCTRGAVADYWGQGTQVTVSS
VL: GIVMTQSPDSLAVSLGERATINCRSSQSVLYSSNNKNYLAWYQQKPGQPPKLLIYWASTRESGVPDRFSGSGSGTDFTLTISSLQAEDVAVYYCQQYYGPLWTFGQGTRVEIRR
notes: as for B2

binding result [9]: binds
B9: TSTO1010 (antibody, V domains shown)
VH: EVQLVESGGGLVKPRGSLRLSCAASGFTFSAYGMNWVRQAPGKGLEWVSSISGDSRDIYYGASMKGRFTISRDNAKSSLYLQMNSLRAEDTAVYYCARGEGGELWAFDYWGLGVLVTVSS
VL: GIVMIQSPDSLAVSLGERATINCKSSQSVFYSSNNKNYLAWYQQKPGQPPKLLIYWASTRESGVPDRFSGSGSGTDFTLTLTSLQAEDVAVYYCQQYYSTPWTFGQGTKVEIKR
notes: as for B2
